Target: T1, HA-ASK1 (Apoptosis Signal-regulating Kinase 1) (UniProt Q99683 1-1374)
T1 sequence (looked up): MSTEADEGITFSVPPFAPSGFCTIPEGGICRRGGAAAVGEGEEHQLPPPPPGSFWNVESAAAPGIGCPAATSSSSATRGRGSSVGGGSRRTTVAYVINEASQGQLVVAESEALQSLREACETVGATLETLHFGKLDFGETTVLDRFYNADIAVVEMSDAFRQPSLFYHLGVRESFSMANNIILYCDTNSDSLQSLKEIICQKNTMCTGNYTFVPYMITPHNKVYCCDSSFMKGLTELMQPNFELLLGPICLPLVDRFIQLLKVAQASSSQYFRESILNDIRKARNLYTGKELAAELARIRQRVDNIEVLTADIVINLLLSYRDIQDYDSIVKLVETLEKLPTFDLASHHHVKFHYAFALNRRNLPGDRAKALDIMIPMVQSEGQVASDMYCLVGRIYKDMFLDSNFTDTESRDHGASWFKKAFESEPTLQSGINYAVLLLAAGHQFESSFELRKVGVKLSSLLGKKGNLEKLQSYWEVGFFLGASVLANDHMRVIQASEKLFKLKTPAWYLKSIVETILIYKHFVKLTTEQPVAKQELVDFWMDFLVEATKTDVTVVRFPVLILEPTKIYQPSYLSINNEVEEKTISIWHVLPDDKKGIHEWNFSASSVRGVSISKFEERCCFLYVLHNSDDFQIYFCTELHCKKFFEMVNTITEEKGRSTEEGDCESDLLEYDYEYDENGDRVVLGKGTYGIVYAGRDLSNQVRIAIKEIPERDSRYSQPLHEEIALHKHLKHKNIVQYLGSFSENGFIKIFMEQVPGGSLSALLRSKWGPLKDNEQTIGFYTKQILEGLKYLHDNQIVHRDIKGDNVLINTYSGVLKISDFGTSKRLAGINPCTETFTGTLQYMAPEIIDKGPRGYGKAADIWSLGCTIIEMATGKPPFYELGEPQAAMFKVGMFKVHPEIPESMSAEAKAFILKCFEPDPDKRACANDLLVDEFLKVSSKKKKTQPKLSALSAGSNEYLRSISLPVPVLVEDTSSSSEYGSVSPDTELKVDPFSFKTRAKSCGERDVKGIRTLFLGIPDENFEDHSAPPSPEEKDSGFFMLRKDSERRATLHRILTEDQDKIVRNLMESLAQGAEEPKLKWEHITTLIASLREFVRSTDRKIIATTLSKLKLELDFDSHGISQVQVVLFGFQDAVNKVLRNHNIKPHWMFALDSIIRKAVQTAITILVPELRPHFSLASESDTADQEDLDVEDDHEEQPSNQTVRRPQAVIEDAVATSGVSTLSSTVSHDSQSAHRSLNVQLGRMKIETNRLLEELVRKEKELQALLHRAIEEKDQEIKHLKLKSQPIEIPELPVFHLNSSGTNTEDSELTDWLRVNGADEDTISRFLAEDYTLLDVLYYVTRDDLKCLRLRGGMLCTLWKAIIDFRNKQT
Experiment: co-IP

B1: arrestin-3-(1–366) fragment (expressed in COS7 cells) (domain or fragment, bovine, UniProt P32120-2 1-366, looked up)
chain: MGEKPGTRVFKKSSPNCKLTVYLGKRDFVDHLDKVDPVDGVVLVDPDYLKDRKVFVTLTCAFRYGREDLDVLGLSFRKDLFIANYQAFPPTPNPPRPPTRLQERLLRKLGQHAHPFFFTIPQNLPCSVTLQPGPEDTGKACGVDFEIRAFCAKSLEEKSHKRNSVRLVIRKVQFAPEKPGPQPSAETTRHFLMSDRSLHLEASLDKELYYHGEPLNVNVHVTNNSTKTVKKIKVSVRQYADICLFSTAQYKCPVAQVEQDDQVSPSSTFCKVYTITPLLSNNREKRGLALDGKLKHEDTNLASSTIVKEGANKEVLGILVSYRVKVKLVVSRGGDVSVELPFVLMHPKPHDHIALPRPQSAAPETD
- binding relative to WT arrestin-3: ~0.33 of WT

Reference: article PMC6321783 (Cellular signalling, 2018)
